Blank lines part the entries; values can stand above or below the molecule they belong to.
Assays:
[1] = biological target: T1, PbPhLP-3 (Plasmodium berghei, UniProt A0A509AN16); test: thioredoxin-coupled NADPH oxidation assay, […] nm; format: biochemical; details: PbTrxR/PbTrx-1/NADPH as reductant, pH 7.4, 25 °C; linear, non-saturating up to millimolar TBHP, authors suggest non-enzymatic mechanism
T1 construct: gene PBANKA_1204800
T1 sequence (A0A509AN16 1-193): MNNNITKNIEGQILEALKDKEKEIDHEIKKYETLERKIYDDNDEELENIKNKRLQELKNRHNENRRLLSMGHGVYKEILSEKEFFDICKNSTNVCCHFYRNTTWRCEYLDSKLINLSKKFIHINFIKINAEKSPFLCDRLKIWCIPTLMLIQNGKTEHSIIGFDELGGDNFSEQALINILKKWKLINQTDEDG

[2] = biological target: T2, HsPhLP-3 (Homo sapiens, UniProt O14530); test: thioredoxin-coupled NADPH oxidation assay, […] nm; format: biochemical; details: thioredoxin system/NADPH as reductant, millimolar TBHP needed; data not shown separately
T2 construct: gene TXNDC9
T2 sequence (O14530 1-226): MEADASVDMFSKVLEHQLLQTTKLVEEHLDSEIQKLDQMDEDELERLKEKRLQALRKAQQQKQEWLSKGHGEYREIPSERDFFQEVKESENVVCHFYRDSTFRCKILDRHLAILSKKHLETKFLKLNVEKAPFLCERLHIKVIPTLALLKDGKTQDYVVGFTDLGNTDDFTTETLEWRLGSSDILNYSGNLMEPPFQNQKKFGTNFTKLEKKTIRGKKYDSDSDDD

[3] = biological target: Plasmodium berghei Phosducin-like protein-3 (PbPhLP-3) (Plasmodium berghei)
[4] = biological target: T3, human PhLP-3 (HsPhLP-3; thioredoxin-domain containing protein 9, TXNDC9) (human) (UniProt O14530)
T3 sequence: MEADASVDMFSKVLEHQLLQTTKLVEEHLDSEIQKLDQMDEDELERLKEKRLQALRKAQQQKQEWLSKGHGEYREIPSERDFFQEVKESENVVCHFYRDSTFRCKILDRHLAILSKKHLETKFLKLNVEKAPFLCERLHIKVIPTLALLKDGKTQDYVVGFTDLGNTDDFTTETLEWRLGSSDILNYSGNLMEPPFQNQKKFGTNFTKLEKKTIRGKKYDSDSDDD

Molecule: CC(C)(C)OO [TBHP]
thioredoxin-coupled NADPH oxidation assay, 340 nm [1]: reduction of the compound was observed in the presence of PbPhLP-3
thioredoxin-coupled NADPH oxidation assay, 340 nm [2]: both PhLP-3 proteins investigated here reduce the oxidative compound TBHP

KM for PbTrx-1 in the Trx-reduction assay (initial velocities of NADPH oxidation at PbTrx-1 0.5–50 μM) [3]: 5.82 µM
Vmax in the Trx-reduction assay (initial velocities of NADPH oxidation at PbTrx-1 0.5–50 μM) [3]: 10.1 µM/min
kcat in the Trx-reduction assay (initial velocities of NADPH oxidation at PbTrx-1 0.5–50 μM) [3]: 0.0167 s⁻¹
kcat/KM (rate constant) in the Trx-reduction assay [3]: 2830 M⁻¹ s⁻¹
Molecule: Plasmodium berghei thioredoxin-1 (PbTrx-1) (natural protein)

KM in the Trx-reduction assay with PbTrxR, HsTrx-1 and HsPhLP-3 [4]: 6.53 µM
Vmax in the Trx-reduction assay with PbTrxR, HsTrx-1 and HsPhLP-3 [4]: 12.6 µM/min
kcat in the Trx-reduction assay with PbTrxR, HsTrx-1 and HsPhLP-3 [4]: 0.021 s⁻¹
kcat/KM (rate constant) in the Trx-reduction assay with PbTrxR, HsTrx-1 and HsPhLP-3 [4]: 3170 M⁻¹ s⁻¹
B1: human Trx-1 (HsTrx-1) (natural protein)
chain: MVKQIESKTAFQEALDAAGDKLVVVDFSATWCGPCKMIKPFFHSLSEKYSNVIFLEVDVDDCQDVASECEVKCMPTFQFFKKGQKVGEFSGANKEKLEATINELV

Source: PMC6312279, “Characterization of a protozoan Phosducin-like protein-3 (PhLP-3) reveals conserved redox activity” (PLoS ONE, 2018)
